Laboratory results taken from paper PMC5321513 (Structure (London, England : 1993), 2017).
[ ]: non-standard residue; d: D form. pS = N[C@@H](COP(=O)(O)O)C(=O)O

T1: 14-3-3σ WT (1-231) (human, UniProt P31947 1-231)
T1 sequence: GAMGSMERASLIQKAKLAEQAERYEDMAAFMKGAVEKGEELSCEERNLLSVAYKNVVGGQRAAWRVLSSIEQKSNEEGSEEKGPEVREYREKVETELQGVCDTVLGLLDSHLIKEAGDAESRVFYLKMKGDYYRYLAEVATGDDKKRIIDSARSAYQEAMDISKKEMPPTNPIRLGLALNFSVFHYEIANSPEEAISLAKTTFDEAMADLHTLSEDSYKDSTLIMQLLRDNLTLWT

T2: 14-3-3σ Clu3 (1-231) (human, UniProt P31947 1-231, 75EEK77 → AAA)
T2 sequence: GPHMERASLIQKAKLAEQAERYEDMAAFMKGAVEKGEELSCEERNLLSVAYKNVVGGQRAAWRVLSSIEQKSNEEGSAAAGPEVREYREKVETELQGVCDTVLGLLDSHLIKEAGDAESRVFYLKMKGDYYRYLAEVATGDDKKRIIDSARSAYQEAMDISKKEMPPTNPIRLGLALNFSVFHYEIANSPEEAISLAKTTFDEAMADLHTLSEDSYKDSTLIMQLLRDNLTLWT

B1: AEDANS-labeled phosphorylated full-length HSPB6 (natural protein, human, UniProt O14558 1-160, looked up)
chain: MEIPVPVQPSWLRRASAPLPGLSAPGRLFDQRFGEGLLEAELAALCPTTLAPYYLRAPSVALPVAQVPTDPGHFSVLLDVKHFSPEEIAVKVVGEHVEVHARHEERPDEHGFVAREFHRRYRLPPGVDPAAVTSALSPEGVLSIQAAPASAQAPPPAAAK
modifications: phosphoserine at 16; 1,5-I-AEDANS moiety on Cys46 (extent of labeling 90%)
B2: pHSPB6(13-20) phosphopeptide (peptide, UniProt O14558 13-20, looked up)
peptide: H-RRA[pS]APLP-OH
SMILES: CC(C)C[C@H](NC(=O)[C@@H]1CCCN1C(=O)[C@H](C)NC(=O)[C@H](COP(=O)(O)O)NC(=O)[C@H](C)NC(=O)[C@H](CCCNC(=N)N)NC(=O)[C@@H](N)CCCNC(=N)N)C(=O)N1CCC[C@H]1C(=O)O

Columns and labels:
[1] = target: T1, 14-3-3σ WT (1-231); assay: other fluorescence titration
[2] = target: T2, 14-3-3σ Clu3 (1-231); assay: crystal structure

| Binder | Kd [1] [nM] | binding result [2] |
| --- | --- | --- |
| B1 | 560 ± 200 | – |
| B2 | – | binds |
